# From the nanobody polyreactivity screen of Harvey et al. (2022)
# Experiment: yeast display, Sf9 membrane polyspecificity reagent, FACS + sequencing; frameworks hold sequencing errors
# How it was run: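 Using colony PCR, genes from sorted yeast display clones were amplified, then sequenced on MiSeq at 2 × 250 and filtered by CDR length. The clones had been stained with 10% biotinylated, detergent-solubilized Sf9 membrane reagent for 1 hour at 4 °C and sorted by FACS into low and high (top ~1%) gates on anti-HA and streptavidin fluorescence. Polyreactivity labels come from the gate of origin.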
row,Sequence,polyreactivity (PSR sort gate)
1,QVQLVESGGGLVQAGGSLRLRCAASGRIFKSYAMGWYRQAPGKERELVAAINWSGGSTYYADSVKGRFTISRDNAKNTVYLQMNSLKPEDTAVYYCNALYAVRSYDSWGQGTQVTVSS,high polyreactivity
2,QVQLVESGGGLVQAGGSLRLSCAASGFIFVGNVMGWYRQAPGKERELVARISTSGGSTYYADSVKGRFTISRDNAKNTVYLQMNSLKPEDTAVYYCAARRRTGREYGYWGQGTQVTVSS,high polyreactivity
3,QVQLVESGGGLVKAGGSLRLSCDASGSILWENAMGWYRQAPGKERELVATISVSGGGTYYADSVKGRFTISRDNAKNTVYLQMNSLKPEDTAVYYCNARYGNESQGWEDYWGKGTQVTVSS,low polyreactivity
4,QVQLVESGGGLVQAGGSLRLSCAASGLTFTTYAMGWYRPAPGKERELVASIRTGGSTNYADSVKGRFTISRDNAKNTVYLQMNSLKPEETAVYYCAAGRRIDKRYEYWGQGTQFTVSS,low polyreactivity
5,QVQLVESGGGLVQAGGSLRLSCAASGSTFGDYDMGWYRQAPGKERELVAAITIGGITTYADSVKGRFTISRDNAKNTVYLQMNSLKPEDTAVYYCAAAERGDWDDYWGQGTQVTVSS,low polyreactivity
6,QVQLVESGGGLVQAGGSLRLSCAASGLIFRPYAMGWSRQAPGKERELVAAITSGGSTDYADSVKGRFTISRDNAKNTVYLQMNSLKPEDTAVYYCNADIYPHDGYPWQGDYDYWGQGTQVTVSS,low polyreactivity
7,QVQLVESGGGLVQAGGSLRLSCAASGSIFGANTMGWYRQAPGKERELVAGITSGARTYYADSVKGRFTISRDNAKNTVYLQMNSLKPEDTAVYYCAAQYAWRRYGYWGQGTQVTVSS,high polyreactivity
8,QVQLVESGGGLVQAGGSLRLSCAASGSTFVPYAMGWYRQAPGKERELVATIRWRGDRTYYADSVKGRFTSSRDNAKKTVYLQMNSLKPEDTAVYYCNTAGWSFYSGRYDYWGQGTQVTVSS,high polyreactivity
9,QVQLVESGGGLVQAGGSLRLSCAASGRTFPGNAMGWYRQAPGKERELVAAISYRGGSTYYADSVKGRFTISRDNAKNTVYLQMNSLKPEDTAVYYCAAASERTGYYYWGQGTQVTVSS,high polyreactivity
10,QVQLVESGGGLVQAGGSLRLSCAAYGSIFWSYAMGWYIQAPGKERELVAGITRSGGSTYYSDSVKGRFTISRDNAKNPVYLQMISLKPEDTAVYYCNKAFGGDKYSGSYEYWGQGNQVTVSS,high polyreactivity
11,QVQLGDSGGGLVQAGGRLGLSCAASGSTFGRYAMGWYRPAPGKERELVAAISSSGGRTYYADSVKGRFTISRDNAKNTVYLQMNSLKPEDTAVYYCASDARFRQKYEYWGQGTQVTVSS,high polyreactivity
12,QVQLVESGGGLVQAGGSLRLSCAASGRISFYYAMGWYRQAPGKERELVAAISRGGSTYYADSVKGRFTISRDNAKNTVYLQMNSLKPEDTAVYYCAATYSGVDTPSGYDYWGQGTQVTVSS,low polyreactivity
13,QVQLVESGGGLVQAGGSLRLSCAASGSIFGYYAMGWYRQAPGKEREFVAAITSRVGRTHYADSVKGRFTISRDNAKNTVYLQMNSLKPEDTAVYYCAAEVRQYYRRGYYWGQGTQVTVSS,high polyreactivity
14,QFQLVESGGGLVQSGGSLRLSCAASGSTFGYYTMGWYRPAPGTERELVAAITWSGGSTYYADSVKGRFTISRDNAKNTVYLPMNSLKPEDTAVYYCAADDYWTPFGYWGQGTQVTVSS,low polyreactivity
15,QDHLVESGGGLVQAGGTLRLSCAASGRIFVGYAMGWYRQAPGKERELVAGISRSGDSTYYADSVKGRFTISRDNAKNTVYLQMNSLKPEDTAVYYCAASWYKNQTRYYYWGQGTQVTVSS,high polyreactivity
16,QVQLVESGGGLVQAGGSLRLSCAASGRTSRDYAMGWYRQAPGKERELVAAIRWRGVSTYYADSVKGRFTISRDNAKNTVYLQMNSLKPEDTAVYYCAKRESVSTSAGKGAMDSWGQGTQVTVSS,high polyreactivity
17,QVQLVESGGGLVQAGGSLRLSCAASGFTIISYTMGWYRQAPGKERELVAAIRGGGRTYYADSVKGRFTISRDNAKNTVYLQMNSQKPEDTAVYYCASRLRYGGHYDYWGQGTQVTVSS,high polyreactivity
18,QVQLVESGGGLVQAGGSLRLSCAASGSTLRYNTMGWYRQAPGKERELVAAISVRGGSTYYADSVKGRFTISRDNAKNTVYLQMNSLKPEDTAVYYCARRIKLGQRQGGYYWGQGTQVTVSS,high polyreactivity
19,QVQLVESGGGLVQAGGSLRLSCDASGRTFQYYAMGWYRQAPGKVRELVAGISSCGGSTYYADSVKGRFTISRDNAKNTVDLQMNSLKPEDTAVYYCNKARYFTGQRYDYWGQGTQVTVSS,high polyreactivity
20,QVQLQESGGGLVQAGGSLRLSCAASGSSFEELDMGWYRQAPGKEREFVAAIGTGSTTYYADSVKGRLTISRDNAKNTVYLQMNSLKPEDTAVYYCAVDTWARAYLGYWGQGTQVTVSS,high polyreactivity
21,QVQLVESVGGLVQAGGSLRLSCPASGFTFKYYAMGWYRQAPGKEREFVAAISRSGGSTTYADSVKGRFTISRDNAKNTVYLQMNSLKPEDTAVYYCAVAYYTAYTPRDGEYWGQGTQVTVSS,high polyreactivity
22,QVQLVESGGGLVQAGGSLRLSCAASGRIFGGNAMGWYRQAPGKERELVAAISQRGGSTSYADSVKGRFTISRDNAKNTVYLQMNSLKPEDTAVYYCAATWGYLRGSTKFYYWGQGTQVTVSS,high polyreactivity

row,Sequence,polyreactivity (PSR sort gate)
1,QVQLEESGGGLVQAGGSLRLTCAASGRTFSSYTMGWSRQAPGKERELVASITNNGGSTYYADSVKGRFTISRDNAKNTVYLQMNSLKPEDTAVYYCNKDPWYVFHPRGLFLFDYWGQGTQVTVSS,low polyreactivity
2,QVQLVESGGGLVQAGGSLRLSCAASGRIFRGYAMGWYRQAPGKERELVAAINSGGDTYYADSVKGRFTISRDNAKNTVYLQMNSLKPEDTAVYYCAAAWWDYGNGKYDYWGQGTQVTVSS,low polyreactivity
3,QVQLVESGGGLVQAGGSLRLICAASGRTFRGDAMGWYRPAPGKERELVAAITKSGGSTYYADSVKGRFTISRDNAKNTVYLQMNSLKPEDTAVYYCAKLRSSRDYDYWGQVTQVTVSS,high polyreactivity
4,QVQLVESGGGLVQAGGSLRLSCAASGIIFPRYAMGWYRQAPGKERELVAAITIGGRTNYSDSVKGRFTISRDNAKNTVYLQMNSLKPEDTAVYYCAAQTYVPYYEYDYWGQGTQVTVSS,low polyreactivity
5,QVQLHESGGGLVQAGGSLRLSCAASGSISAVGAMGWNRQPPGKEREFAASVNWGTNTNYADSVKGRFTFSRDNAKNTLYLQMNSLKPEDTGVYYCAVLPDWETRHDYWGHGTQVTVSS,low polyreactivity
6,QVQLVESGGGLVQAGGSLRLSCAASGRIFWSNAMGWYRQAPGKERELVAAISYSGGSTYYADSVKGRFTISRDNAKNTVYLQMNSLKPEDTAVYYCAALFRPRVHRFDYWGQGTQVTVSS,low polyreactivity
7,QVQLVESGGGLVQAGGSLRLSCAASGRISSANAMGWYRPAPGKERELVAAITWSGGSTYYADSVKGRFTISRDNAKNTVYIQMNSMKQEDTAVYYCAAESSAYGGGTSDAGYESDYWGQGTQVTVSS,low polyreactivity
8,QVQLVESGGGLVQAGGSLRVSCAASGRTIRWNAMGWSRQAPGKEREMVAAITSRGGSTYYADSVKGRFTISRDNAKNTVYLQMNSLKPEDTAVYYCAKQPKPPPVTGYDYWGQGTQVTVSS,high polyreactivity
9,QVQLVESGGGLVQAGGSLRLSCAASGSTFWPYAMGWYRQAPGKERELVAAISNGGGTKYADSVKGRFTISRDNAKNTVYLQMNSLKPEDTAVYYCAKTLWTGRAWYDYWGQGTQVTVSS,high polyreactivity
10,QVQLVESGGCLVQAGGSLRLSCAASGRIYIGYAMGWYRQAPGKERELVAAITTGGRTSYAVSVKGRFTISRDNAKNTVYLQMNSLKPVDTAVYYCAKRKSYNFPTRRPYYRRYYYWGQGTQVTVSS,high polyreactivity
11,QVQLVESGGGLVQAGGSLRLSCAASGRTCPYYVMGWFRQAPGKERELVAAIRRTGGSTYYADSVKGRFTISRDNAKNTVYLQMNSLKPEDTAVYYFTKSHSILYEGGYDYWGQGTQVTVSS,low polyreactivity
12,QVQLVESGGGLVQAGGSLRLSCAASGSTFYRYAMGWYRQAPGKERELVAAISSSGGSTYYADSVKGRFTISRDNAKNTVYLQMNSLKPEDTAVYYCNAAYRVRRFDYWGQGTQVTVSS,low polyreactivity
13,QVQLVESGGGLVQAGGSLRLSCAASGFTFPQYVMGGYRQAPGKERELVAAISSRGGRTYYADSVKGRFTISRDNAKNTVYLQMNSLIPEDTAVYYCAKGKRDSRAFDYWGQGTQVTVSS,high polyreactivity
14,QVQLVESGGGLVQAGGSLRLSCAASGRISNKYAMGSYRQAPGKERELVAAISYSGGTTYYADSVKGRFTISRDNAKNTVYLQMNSLKPEDTAVYYCARVWSKGYGYYWGYYWGQGSQVTVSS,low polyreactivity
15,QVQLVESGGGIVQAGGSLRLSCAASGFTFAYYAMGWYRQAPGKERELVAAITRGGGRTFYADSVKGRFTISRDNAKNTVYLQMNSLKPEDTAVYYCAAVKDTTNSRGYGYWGQGTHVTVSS,high polyreactivity
16,QDQLVESGGGLVQAGGSLRLSCAASGFTFYAYSMGWYRQAPGKERELVAAITYIGSTYYADSVKGRFTISRDNAKNTVYLQMNSLKPEDTAVYYCAAVKVFLGLGYDYWGQGTQVTVSS,low polyreactivity
17,QVQLVESGGGLVQAGGSLRLSCAASRFTFVRYAMGWYRQAPGKEREFVASISARGGNTFYADSVKGRFTISRDNAKNTVYLQMNSLKPEDTAVYYCAASRRVGEVSYYYWGQGTQVTVSS,high polyreactivity
18,QVQLVESGGGLVQAGGSLRLSCAASGSTFLWYTIGWYRQAPGKERELVADISSGGTTYYADSVKGRFTISPDNAKNTVYFQMNSLKPEDTAVYFCAKTRWPYDRWKYAFGYWGQGTQVTVSS,high polyreactivity
19,QVQLVESGGGLVQAGGSLRLSCAASGFTRIYAMGWYRQAPGKEREMVAAISQRGGRTYYADSVKGRFTISRDNAKNTVSLQKNSLKQEDTAVYYCNSDLRSYNYPEYEYDYWGQGTQVTVSS,high polyreactivity
20,QVQLVESGGGLVQAGGSLRLSCAASGSIFGRNAMGLYRQAPGKERELVAAITDGGNTNYADSVKGRFTISRDNAKNTVYLQMNSLNPEDTAVYYCAARIPGTYGGRYGYDYWGQGTQVTVSS,low polyreactivity
21,QVQLVESGGGLVQAGGSLRLSCAASGSIFSPYAMGWYRQAPGKERELVAAISYGVGNTYYADSVKGRFTISRDNAKNTVYLQMNSLIPEDTAVYYCAAEEYDYVFPHYFTKGYYWGQGTQVTVSS,high polyreactivity
